Patent US11077130

Tests used:
B.RHPA Env N160K (HIV-1) = assay: cell-based or functional assay
B.RHPA Env N276A (HIV-1) = assay: cell-based or functional assay
B.RHPA Env T278A (HIV-1) = assay: cell-based or functional assay
[1] = molecular target: B.RHPA Env T278A R456W (HIV-1); assay: cell-based or functional assay
[2] = molecular target: HIV-1 Env (strain and construct not stated); assay: SPR; antibody-Env mixture flowed over immobilized HJ16 (competitor: immobilized HJ16)
B.6240 gp120 (HIV-1) = assay: not stated (binding of B.6420 gp120 to mAbs)

HJ16 (antibody)
fold increase in IC50 (neutralization, mutant vs wild type) (B.RHPA Env N160K (HIV-1)): 0.5 fold
fold increase in IC50 (neutralization, mutant vs wild type) (B.RHPA Env N276A (HIV-1)): > 10 fold
fold increase in IC50 (neutralization, mutant vs wild type) (B.RHPA Env T278A (HIV-1)): > 10 fold
fold increase in IC50 (neutralization, mutant vs wild type) [1]: > 1000 fold
percent blocked [2]: 96%

PG9 (antibody)
quantity not named (value printed after the antibody's name) (B.6240 gp120 (HIV-1)): 32.1 nM
